The results in this text go back to publication PMC9909426.

In general, stoichiometry N refers to the number of molecules, sites or subunits per partner or assembly.

In this experiment the target is Orange Carotenoid Protein variant OCP-W288_BTA (Synechocystis sp. PCC 6803 OCP with Trp288 replaced by 3-benzothienyl-L-alanine) (Synechocystis sp. PCC 6803) (UniProt P74102). Put plainly: SEC; preparative SEC, Superdex 200 Increase 10/300, after IMAC and HIC; pink, earlier eluting fraction OCP-W288_BTA(P).

With “Orange Carotenoid Protein variant OCP-W288_BTA (Synechocystis sp. PCC 6803 OCP with Trp288 replaced by 3-benzothienyl-L-alanine) (from UniProt P74102 1-317) (natural protein)”, the stoichiometry N turned out to be 2.
